According to paper PMC9693254:

Substrate: CCOC(=O)[C@H](CCCNC(=N)N)NC(=O)c1ccccc1
Experiment: purified protein
Settings: 50 mM Tris/HCl pH 8.0, 25 mM NaCl, 1 mM EDTA, 25 °C, substrate 25–100 μM, apparent Km, numbering of proCCN
[1] = CCN' auto-processed from proCCN'
[2] = mature CCN' prepared from [K8D,K63G,K131G,K133A]-proCCN (K8D lies in the removed propeptide,

Protein | Km | Vmax | Km [1] | Vmax [1] | Km [2] | Vmax [2]
cocoonase (CCN), mature form (Bombyx mori; K85G) (protein) IVGGEEISINKVPYQAYLLLQKDNEYFQCGGSIISKRHILTAAHCIEGISGVTVRIGSSNSNKGGTVYTAKSKVAHPKYNSKTKNNDFAIVTVNKDMAIDGKTTKIITLAKEGSSVPDKTKLLVSGWGATSEGGSSSTTLRAVHVQAHSDDECKKYFRSLTSNMFCAGPPEGGKDSCQGDSGGPAVKGNVQLGVVSFGVGCARKNNPGIYAKVSAAAKWIKST | 400 µM | 0.006 µM/min | – | – | – | –
cocoonase (CCN), mature form (Bombyx mori; K153G/K155A/K85G) (protein) IVGGEEISINKVPYQAYLLLQKDNEYFQCGGSIISKRHILTAAHCIEGISGVTVRIGSSNSNKGGTVYTAKSKVAHPKYNSKTKNNDFAIVTVNKDMAIDGKTTKIITLAKEGSSVPDGTALLVSGWGATSEGGSSSTTLRAVHVQAHSDDECKKYFRSLTSNMFCAGPPEGGKDSCQGDSGGPAVKGNVQLGVVSFGVGCARKNNPGIYAKVSAAAKWIKST | – | – | 370 µM | 0.0084 µM/min | 920 µM | 0.0276 µM/min
